This data set can be described thus: yeast display, Sf9 membrane polyspecificity reagent, FACS + sequencing; frameworks hold sequencing errors. An outline of the steps: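 Genes from sorted yeast were amplified by colony PCR, read by MiSeq 2 × 250 sequencing and filtered on CDR length. These cells carried a synthetic nanobody library in Saccharomyces cerevisiae BJ5465 and were sorted by FACS into low and high (top ~1%) gates on anti-HA and streptavidin fluorescence. Polyreactivity is labelled according to the gate of origin.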
Turning to “QVQLVESGGALVQAGGSLRISCAASGRIFDGYTMGWSRQAPGKERELVAAITSGGGSTYYADSVKGRFTISRDNAKNTVYLQMNSLKPEDTAVYYCAAYRRNTYWGQGTQVTVSS”, the “polyreactivity (PSR sort gate)” value is given as “high polyreactivity”.

For “QVQLVESGGALVQAGGSLRLNCAASGRTFGYNAMGWYRQAPGKERELVAAITIGGSTNYADSVKWRFTISRDNAKNNGYLQMNSLLPEDTAVYYCAAYDTLLYWVEFYYWGQGTQVTVSS”, the “polyreactivity (PSR sort gate)” value is “low polyreactivity”.

Take “QVQLVESGGALVQAGGSLRLSCAASGFTFPPSARGWYRQAPGKERELVARITWSGDRTYYADSVKGRFTISRDNAKNTVYLQMNSLKPEDTAVYYCAARRLPRKERKLYYWGQGTQVTVSS”: the “polyreactivity (PSR sort gate)” value is on record as “high polyreactivity”.

“QVQLVESGGALVQAGGSLRLSCAASGISFSWYAMGWYRQAPGKEREFVAAISRGGTSTYYADSVKGRLTISRDNAKNTVYLQMNSLKPEDTAVSYCAVQWLYPYDYWGQGTQVTVSS”: the “polyreactivity (PSR sort gate)” value was “high polyreactivity”.

Turning to “QVQLVESGGALVQAGGSLRLSCAASGITFKPYGMGRYRQAPGKETELVADITSGGITYYADSVKGRFTISRDNAKNTVYLQMNSLKPEDTDVYYCAAVGGRSSYRLDYWGQGTQVTVSS”, the “polyreactivity (PSR sort gate)” value is “low polyreactivity”.

For “QVQLVESGGALVQAGGSLRLSCAASGLIYSHNAMGWYRQAPGKERELVAAISWRGGRTYYADSVKGRFTISRDNAKNTVYLLMNSLKPEDTAVFYCNKYYGKRYDYLGQGTQVTVSS”, the “polyreactivity (PSR sort gate)” value is recorded as “high polyreactivity”.

For the sequence “QVQLVESGGALVQAGGSLRLSCAASGNIFVYYAMGGYRQAPGKERELVAAITSDVSTYYADSVKGRFTISRDNAKNTVYLQMNSLKPEDTAVYYCATTGYGSYVIYWGQGTQVTVSS”, the “polyreactivity (PSR sort gate)” value was “low polyreactivity”.

Consider “QVQLVESGGALVQAGGSLRLSCAASGNTFRGYTMGWYRQAPGKEREFVAAISWSGGRTNYADSVKGRFTISRDNAKNTVYLQMNSLTPEDTAVYYCGRDYRARRWGMDYWGQGTQVTVSS”, for which the “polyreactivity (PSR sort gate)” value is listed as “high polyreactivity”.

In the case of “QVQLVESGGALVQAGGSLRLSCAASGRIFGVYAMGWYRQAPGKERELVAAITRGASTYYADSVKGRFTISRDNSKNTVYLQMNSLKPEDTAVYYCAVSQYRGIYRKYDYWGHGTQVTVSS”, the “polyreactivity (PSR sort gate)” value is “high polyreactivity”.

Take “QVQLVESGGALVQAGGSLRLSCAASGRTFAKYAMGWYRQAPGKERELFAAINSSGGSTYYADSVKGRFTISRDNAKNTVYLQMNSLKPEDTAVYYCADLGIGSYRRYSGYDYWGQGTQVTVSS”: the “polyreactivity (PSR sort gate)” value is “low polyreactivity”.

In the case of “QVQLVESGGALVQAGGSLRLSCAASGRTFGLTAMGWYRQAPGKERELVAAITWSDDDTYYADSVKARFTNSRDNAKNTVYLQMNSLKPEDTAVYYCAATYPYRQYDYWGQGTQVTVSS”, the “polyreactivity (PSR sort gate)” value is “low polyreactivity”.

Take “QVQLVESGGALVQAGGSLRLSCAASGRTFYPNAMGGYRQAPGKERELVAGSSYGTGSTYYADSVKGRFTISRDNAKNTVYLQMNSLKAEDNAVYYCAADNWAVNAYYWYIYDYWGQGTQVTVSS”: the “polyreactivity (PSR sort gate)” value is listed as “low polyreactivity”.

With “QVQLVESGGALVQAGGSLRLSCAASGSIFGSYALGWYRQAPGKERELVASITRVDSTNYADSVKGRFTISRDNAKNTVYLQMNSLKPEDTAVYYCAADITSPAYATYDYWGQGTQVTVSS”, the “polyreactivity (PSR sort gate)” value is “low polyreactivity”.

With “QVQLVESGGALVQAGGSLRLSCAASGSIFRFYAMGWYRQAPGKERELVAAISWSGGSTYYADSVKGRFTISRDNAKNTVYLQMNSLKPEDTAVYYCNTRYYGGFDSWGQGTQVTVSS”, the “polyreactivity (PSR sort gate)” value is recorded as “high polyreactivity”.

In the case of “QVQLVESGGALVQAGGSLRLSCAASGSIFSRYTMGWYRQAPGKERELVAAIPSSGGRTYYADSVKGRFTNSRDNAKNTVYLQMNSLKPEDTAVYYCNAGGAYEYDYWGQGTQVTVSS”, the “polyreactivity (PSR sort gate)” value was “high polyreactivity”.

Regarding “QVQLVESGGALVQAGGSLRLSCAASGSIFYVYAMGWYRQAPGKEREFVAAITWSGGRTYYADSVKGRFTISRDNAKNTVYLQMNSLKPEDTAVYYCAAGKYRYTYYALEYDYWGQGTQVTVSS”, the “polyreactivity (PSR sort gate)” value is “low polyreactivity”.

As to “QVQLVESGGALVQAGGSLRLSCAASGSIYGGYTMGWYRHAPGKEMEFVAAISRRGGNTYYADSVKGRFTISRDNAKNTVYLQMNSLKPEDTAVYYCAVRWPSARIQVKLDYWGQGTQVTVSS”, the “polyreactivity (PSR sort gate)” value is given as “high polyreactivity”.

As for “QVQLVESGGALVQAGGSLRLSCAASGSTFDANVMGWYRQAPGKERELVAAISRDTNTYYADSVKGRFTISRDNAKNTVYLQMNSLKPEDTAVYYYWGQGTQVTVSS”, the “polyreactivity (PSR sort gate)” value is reported as “low polyreactivity”.

Regarding “QVQLVESGGALVQAGGSLRLSCAASGSTFFHYAMGWYRQAPGKERELVAAIDSNGGSTYYADSVKGRFTISRDNAKNTVYLQMNSLKPEDTAVYYCAADDLAEFEYDYWGQGTQVTVSS”, the “polyreactivity (PSR sort gate)” value is given as “low polyreactivity”.

For the sequence “QVQLVESGGALVQAGGSLRLSCAASGSTSVDYTMGWYRQAPGNDKDLVAAIDYNGDSTYYADSEKGRFTISRDNAKNTFYLQMNSLKPEDTAVYYCAADVWTLDPEVYDYWGPGTQVTVSS”, the “polyreactivity (PSR sort gate)” value is recorded as “low polyreactivity”.

“QVQLVESGGALVQAGGSLRLSCAASGYIFAYYAMGWYRQAPGKERELVATISYGGGSTYYADSVKGRFTISRDNAKNTVYLQMNSLKPEDTAVYYCAAVPWASDGYYSWGQGTQVTVSS”: the “polyreactivity (PSR sort gate)” value is reported as “low polyreactivity”.

Take “QVQLVESGGALVQAGGSLRLSCAASGYIFRYYAMGWYRQAPGKVREFVAAISRNGGSKSYADSVKGRFTISRDNAKNTVYLQMISLKPEDTAVYYCNKRVGFLYKSDYWGQGTQVTVSS”: the “polyreactivity (PSR sort gate)” value is recorded as “high polyreactivity”.

For the sequence “QVQLVESGGALVQAGGSLRLSCAYSGLTFYGNTMGWYRQAPGKERELDAAITYSGTRTYYADSVKGRFTISRDTAKNTVYLQMNSLKPEDTAVYYCNALSYANSIDTYDYWGQVTQVTVSS”, the “polyreactivity (PSR sort gate)” value is on record as “high polyreactivity”.

For “QVQLVESGGALVQAGGSLRLSCGASGSTFHPYAMGWYRQAPGKERELVGAITWRVGSTYYADSVKGRFTISRDNAKNTVYLQMNSLKPEETAVYYCAVSYLSTLVRSRYDYWGQGTQVTVSS”, the “polyreactivity (PSR sort gate)” value is “low polyreactivity”.

Regarding “QVQLVESGGALVQAGGSLRLSCSASGSIFHGYIMGWYRQAPGKERELVAAITTGGSTNYADSVKGRFTISRDNAKNTVYLQMNSLKPEDTAVYDCATDPYVDPSRDYLELGGYWGQGTQVTVSS”, the “polyreactivity (PSR sort gate)” value is reported as “low polyreactivity”.

“QVQLVESGGALVQAGGSLRLTCAASGSIYYVNAMGWYRQAPGKERELVAAISVRGGRTYYADSVKGRFTISRDNAKNTFYLQMNSLKPEDTEVYYCATRISTVGRYDYWGQGTQVTVSS”: the “polyreactivity (PSR sort gate)” value is listed as “high polyreactivity”.

For the sequence “QVQLVESGGALVQAGGSLRVSCAASGFIFYGYAMGWYRQAPGKERELVAAISSGGGRTYYADSVKGRFTISRDNAKNTVYLQMNSLKPEDTAVYYCAAKVYYYTGGGGEDYWGQGTQVTVSS”, the “polyreactivity (PSR sort gate)” value is recorded as “low polyreactivity”.

On to “QVQLVESGGALVQAGGSLSLSCAASGSTYSYYAMGWYRQAPGKETEVVAAINRSGGSTYYADSVKGRFTISRDNAKYTVYLQMNSLKPEDTAVYYCAALRSKTVSYDRYDYWGQGTQVTVSS”, for which the “polyreactivity (PSR sort gate)” value is recorded as “high polyreactivity”.

Turning to “QVQLVESGGCIVQAGGSLRLSCAASGLIFGPYAMGWYRQAPGKERELVAAISARGGSTYYADSVKGRFTISRDNAKNTVYLQMNSLKPEDTAVYYCAARQYSVNTHYGYNYWGQGTQVTVSS”, the “polyreactivity (PSR sort gate)” value was “high polyreactivity”.

On to “QVQLVESGGCIVQAGGSLRLSCAASGRNLAPNAMGWSRQAPGKERELVAGITWSGGSTYYADSVKGRFTISRDNAKNTVYLPMNSLKPEDTAVYYCAACRSFPGYGLYYYWGQGTQVTVSS”, for which the “polyreactivity (PSR sort gate)” value was “low polyreactivity”.

In the case of “QVQLVESGGCIVQAGGSLRLSCAAYGRIFAKYVMGWSRKAPGKERELVAAITSSGGSTYYADSVKGRFTISRDNAKNTVYVQMNSLKSEDTAVYYGAAGPSYHSSYYSWGQVTQVTVSS”, the “polyreactivity (PSR sort gate)” value is listed as “high polyreactivity”.

For “QVQLVESGGCLEQAGGSLRLSCAASGFTFVSNDMGWYRQAPGKERELVAAISQGGGSTYYADSVKGRFTISRDNAKNTVYLQMNSLKPEDTAVYYCAAEDVYFGYDYWGQGTQVTVSS”, the “polyreactivity (PSR sort gate)” value is “low polyreactivity”.

Take “QVQLVESGGCLGQAGGSLRLTCAASAFTFRHYTKGWYRQAPGKVRVLVAVITRSGGSTYYADSVKGRFTISRDNAKNTVYLQMNRLKPEDTAVYYCAARYKREYNYWGQGTQVTVSS”: the “polyreactivity (PSR sort gate)” value is reported as “high polyreactivity”.

On to “QVQLVESGGCLLQAGGSLRLSCAASGFTFRKNAMGWYRDAPGKERQLVAAISSGTSTYYADSVKVRFTISRDNAKNTVYLQMNSLKPEDTAVYYCAAARYRTDDYCGQGTQVTVSS”, for which the “polyreactivity (PSR sort gate)” value is reported as “high polyreactivity”.

On to “QVQLVESGGCLVPAGGSLRLSCAASGRTFYYNAMGWYRQAPGKERELVAAISSSGGRTYYADSVKGRFTISRDNGKNTVYLQMNSLKPEDTAVFYCAALTNARGFDYWGQGTQVTVSS”, for which the “polyreactivity (PSR sort gate)” value is “high polyreactivity”.

In the case of “QVQLVESGGCLVQAGGRLRLSCAASGRIFYRYSMGWYRQAPGKERELVAAINDVGSTYYADSVKGRFTISRDNAKNTVYLQMNILKPEDTAVYYCNGVNEHQSDFVVPFDYNHWGQGTQVTVSS”, the “polyreactivity (PSR sort gate)” value is listed as “low polyreactivity”.

Consider “QVQLVESGGCLVQAGGSIRLSCAASGSTFDINAMGWYRQAPGKERELVASITFSGGSTYYADSVKGRFTISRDNAKNTGYLQMNSLKPEDTAVYYCAADSSGEYPGGYWGQGTQVTVSS”, for which the “polyreactivity (PSR sort gate)” value was “low polyreactivity”.

For “QVQLVESGGCLVQAGGSLRFSCAASGIIFYGYAMGWYRQAPGKERELVAAISERGGSTYYADSVKGRFTISRDNAKNTVYLQMNSLKPEDTAVYYCAVDYYYLMYWGQGTQVTVSS”, the “polyreactivity (PSR sort gate)” value was “low polyreactivity”.

“QVQLVESGGCLVQAGGSLRFSCAASGSTFHRYVMGWYRQAPGKERELVAVINSTGGSTYYADSVKGRYTISRDNAKNTVYLQMNSLKPEDTAVYYCARVTRRGPGYTTLYSRYDYWGQGTQVNVSS”: the “polyreactivity (PSR sort gate)” value was “low polyreactivity”.

Consider “QVQLVESGGCLVQAGGSLRLICAASGSTFLLNAMGWYRQAPGKVRELVAAITSSGRTNYADSVKGRFTISRDNAKNTVYLQMNSLKPEDTAVYYCNTRYSPGYQGTDVDYWRQGTQVTVSS”, for which the “polyreactivity (PSR sort gate)” value is recorded as “low polyreactivity”.

As for “QVQLVESGGCLVQAGGSLRLICAASGSTFRRYAMGWYRQAPGKERELVATISKSGGSTYYADSVKGRFTISRDNAKNTVYLQMNSLKPEDTAVYYCAARSFFYRVSDRRAYIDTNGYWGQGTQVTVSS”, the “polyreactivity (PSR sort gate)” value is “high polyreactivity”.

The values above are taken from the nanobody polyreactivity screen of Harvey et al. (2022).
